Source: publication PMC3852654

Legend:
[1] = target: Rap1a (resistance-associated protein 1a, immunity protein of Ssp1), without N-terminal periplasmic targeting sequence (Serratia marcescens); assay: SEC; Rap1a alone in solution (Supplementary Fig. S1)
[2] = target: Rap1a (resistance-associated protein 1a, immunity protein of Ssp1), without N-terminal periplasmic targeting sequence (Serratia marcescens); assay: crystal structure; Rap1a alone; reservoir 25% PEG 3350, 100 mM bis-tris pH 5.5; about 2.0 A; two molecules in the asymmetric unit
[3] = target: Rap2a (resistance-associated protein 2a, immunity protein of Ssp2), without N-terminal periplasmic targeting sequence (Serratia marcescens); assay: crystal structure; Rap2a alone, 13.5 mg/ml; reservoir 25% PEG 1000, 0.1 M MES pH 6.5; 1.9 A; four molecules in the asymmetric unit

For “Rap1a (resistance-associated protein 1a, immunity protein of Ssp1), without N-terminal periplasmic targeting sequence (natural protein)”, the stoichiometry N [1] was 2 and the stoichiometry N [2] was 2.
“Rap2a (resistance-associated protein 2a, immunity protein of Ssp2), without N-terminal periplasmic targeting sequence (natural protein)” showed a stoichiometry N [3] of 2.
